Ends that are not written are not given here.
T1: BSA-PEP3 peptide (HIV-1 MN strain, also: conjugated to BSA)
T1 construct: The KLH immunogen carried an added N-terminal Cys
T1 peptide: PWNASWSNKSLDDIW


Assays:
BSA-PEP3 peptide [1] = molecular target: T1, BSA-PEP3 peptide; assay: ELISA, hybridoma supernatant pure, coated BSA-PEP3
[2] = molecular target: T2, HXB2 gp41 recombinant protein (a.a. 534-681) (HIV-1 HXB2, UniProt P04578 534-681); assay: sandwich ELISA, mAb capture, gp41 titrated, biotinylated goat pAb detection
T2 construct: Bought; tags not described; also called ABIN1605865

[3] = molecular target: T3, HIV-1 MN gp41 recombinant protein produced in E. coli (565-771Delta642-725) (HIV-1 MN); assay: ELISA, hybridoma supernatant pure, coated MN gp41
T3 construct: range 565-771; Residues 642-725 are deleted; also called MN gp41 (produced in E. coli); MN gp41 protein

BSA-PEP3 peptide [4] = molecular target: T1, BSA-PEP3 peptide; assay: ELISA, hybridoma supernatant 1/10, coated BSA-PEP3
[5] = molecular target: T3, HIV-1 MN gp41 recombinant protein …; assay: ELISA, hybridoma supernatant 1/10, coated MN gp41
[6] = molecular target: T2, HXB2 gp41 recombinant protein (a.a. …); assay: sandwich ELISA, 72D7 capture 10 µg/ml, HXB2 gp41 titrated, biotinylated 4G1 detection 20 µg/ml

Binder | ELISA screening signal (BSA-PEP3 peptide [1]) | minimal amount of gp41 detected [2] | ELISA screening signal [3] | ELISA screening signal (BSA-PEP3 peptide [4]) | ELISA screening signal [5] | EC50 [6]
anti-PEP3 mAb 3A2 (antibody, V domains shown) VH: QVQLQQPGAELVKPGASVKLSCKASGYIFTNYWMHWVRQRPGQGPEWIGMIHPNRGDLHYSEKFNNKATLTVDKSSSTAYMQLNSLASEDSAVYFCARAGLGVFDYWGQGSTLTVSS VL: DVVMTQTPLSLPVSLGDQVSMSCRSSQSIEHSNRNTYLEWYLHKPGQAPQLLIYGVSNRFTGVPDRFSGSGSGTDFTLKISRVEAEDMGVYHCLQGTHVPFTFGSGTKLEIK | 2.93 | ~1 ng/mL | 2.63 | 3.06 | 2.75 | –
anti-PEP3 mAb 15B4 (antibody, V domains shown) VH: QVQLQQSGPELVRPGTSVKISCKAPGYSFTSHWMQWLRQRPGQGLEWIGEIFPGSGKTYYNEKFKDKATLTADTSSTTVYMQFSSLTSEDSAVYFCASDYDGGDYWGQGTTLTVSS VL: not shown | 2.73 | > 10 ng/mL | 1.81 | 2.59 | 1.45 | –
anti-PEP3 gp41 mAb 4G1 (antibody, V domains shown, Also used biotinylated (4G1-biot) as detection antibody; also called 4G1 anti-PEP3 mAb; 4G1 mAb) VL: DVVMTQTPLSLCVSLGDQASISCRTSQSIVHSNRYTYLEWYLQKPGQPLKLLIYGIANRFSGVPDRFSGSGSGTDFTLKISRVEAEDMGVYYCLQGTHVPFTFGSGTKLEIK V domain: QVQLQQPGAELVKPGASVKLSCKASGYIFRNYWMHWVKQRPGQGLEWIGMIHPNSDITHYNEKFKNRATLTVDKSSSTAYMQLNSLTSEDSAVYYCARGGLGVFDYWGQGTALRVSS | – | ~1 ng/mL | – | – | – | 0.34 µg/mL
anti-PEP3 mAb 8D5 (antibody, V domains shown) VH: QVQLQQPGAELIEPGTSVKLSCKASGYTFTTYWMHWVKQRPGQGLEWIGMIHPNSGDTFYNENFKNKATLTVDISSSTVYMELSSLTSEDSAVYSCVKAGTGALDYWGQGTTLTVSS VL: DVVMTQTPLSLPVSLGDQASISCRSSQSIVHSNRYTYLEWYLQRPGQSLKLLIYGVSNRFSGVPDRFSGSGSGTDFILKISRVEAEDMGVYYCFQGTHVPFTFGSGTKLEIK | 2.51 | ~1 ng/mL | 2.58 | 2.69 | 2.55 | –
anti-PEP3 mAb 5E12 (antibody, V domains shown) VH: QIQLVQSGPELKKPGETVKISCKASGYTFRTYGMSWVKQAPGKGLKWMGWINTYSGVPRYVDDFKGRFALSLETSASTAYLQINNLKSEDTATYFCVREGYSYYGSSFHTMDYWGQGTSVTVSS VL: DIQMTQTPLTLSVTIGHPASISCKSSQSLLHTNGKIYLNWLLQRPGQSPKRLIYLVSKLDSGVPDRFSGSGSGTDFTLKISRVEAEDLGVYYCLQSTHFPQTFGGGTKLEIK | 3 | – | 2.61 | 3.21 | 2.71 | –
anti-PEP3 mAb 9B12 (antibody, V domains shown) VH: QVQLQQSGPELVKPGASVKISCKASGYGFSDSWMNWVKQRPGKGLDWIGRIYPGDGDTDYNGKFKDKATLTADKSSTTAYMQLSSLTSEDSAVYFCAYLGHWGQGTLVTVSA VL: not shown | 2.79 | – | 0.054 | 2.78 | 0.047 | –

— patent publication US20220281959A1 (DIACCURATE, published 2022)
